Data published in patent publication US20130034559A1.

Columns and labels:
[1] = target: human B7-H1 expressed on cells (human) (UniProt Q9NZQ7); experiment: FACS, 5 µg/ml isotype control, 293T cells transfected with human B7-H1
[2] = target: mouse B7-H1 on J558 cells (mouse) (UniProt Q9EP73); experiment: FACS, 5 µg/ml isotype control, J558 cells expressing mouse B7-H1
[3] = target: human B7-DC on 293T cells (human) (UniProt Q9BQ51); experiment: FACS, 5 µg/ml isotype control, 293T cells transfected with human B7-DC
Sequence of human B7-DC on 293T cells (human) (Q9BQ51 20-273): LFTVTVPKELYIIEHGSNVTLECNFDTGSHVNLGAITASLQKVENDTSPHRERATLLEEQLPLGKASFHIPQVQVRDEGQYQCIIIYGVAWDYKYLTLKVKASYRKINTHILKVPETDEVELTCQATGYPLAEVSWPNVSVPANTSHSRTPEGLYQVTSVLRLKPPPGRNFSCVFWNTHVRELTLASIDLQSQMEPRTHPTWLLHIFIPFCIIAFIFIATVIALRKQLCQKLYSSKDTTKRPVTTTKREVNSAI

[4] = target: human B7-H1 expressed on cells (human) (UniProt Q9NZQ7); experiment: FACS, 1 µg/ml isotype control, anti-CD3-activated human T cells
[5] = target: cynomolgus monkey B7-H1 expressed on cells (cynomolgus monkey) (UniProt G7PSE7); experiment: FACS, 1 µg/ml isotype control, anti-CD3-activated cynomolgus monkey T cells
Sequence of cynomolgus monkey B7-H1 expressed on cells (cynomolgus monkey) (G7PSE7 entry or part of it): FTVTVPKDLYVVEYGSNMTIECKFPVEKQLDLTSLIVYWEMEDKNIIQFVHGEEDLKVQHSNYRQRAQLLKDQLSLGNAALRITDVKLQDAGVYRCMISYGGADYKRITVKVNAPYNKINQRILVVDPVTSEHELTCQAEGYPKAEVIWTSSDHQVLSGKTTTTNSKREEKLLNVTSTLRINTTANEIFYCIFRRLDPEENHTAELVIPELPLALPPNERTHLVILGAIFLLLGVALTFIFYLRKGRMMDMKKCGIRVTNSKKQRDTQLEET

Sequence of human B7-H1 expressed on cells (human) (Q9NZQ7 19-290): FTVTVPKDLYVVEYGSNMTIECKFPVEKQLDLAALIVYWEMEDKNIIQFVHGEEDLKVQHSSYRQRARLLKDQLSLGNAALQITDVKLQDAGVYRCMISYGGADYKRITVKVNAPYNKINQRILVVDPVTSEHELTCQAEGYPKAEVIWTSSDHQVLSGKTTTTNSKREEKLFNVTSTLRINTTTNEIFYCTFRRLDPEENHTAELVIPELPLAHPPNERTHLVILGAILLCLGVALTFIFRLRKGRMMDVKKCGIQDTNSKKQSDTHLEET
Sequence of mouse B7-H1 on J558 cells (mouse) (Q9EP73 19-290): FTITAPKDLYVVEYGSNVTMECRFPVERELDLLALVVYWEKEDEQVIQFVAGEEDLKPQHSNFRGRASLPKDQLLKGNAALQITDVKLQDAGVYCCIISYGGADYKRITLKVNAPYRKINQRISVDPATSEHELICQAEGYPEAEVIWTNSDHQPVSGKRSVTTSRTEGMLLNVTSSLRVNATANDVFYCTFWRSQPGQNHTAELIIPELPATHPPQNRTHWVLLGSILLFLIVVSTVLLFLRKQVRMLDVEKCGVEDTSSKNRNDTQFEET

Row | Substance | geo mean [1] | geo mean [2] | geo mean [3] | geo mean [4] | geo mean [5]
1 | irrelevant human IgG2 antibody | 7.6 | 3.1 | 9.5 | 10 | –
2 | irrelevant human IgG4 antibody | 10.7 | 3.2 | 8.8 | 10 | 17.6
